# According to paper PMC5023487 (Traffic (Copenhagen, Denmark), 2016):
# Several values for one entry are separate records, joined by “and”; a condition that tells them apart may be missing. Identical values can stand only once.
# B1: Recombinant His6-Sec18p (enzyme, S. cerevisiae, UniProt P18759 1-758, looked up)
# chain: MFKIPGFGKAAANHTPPDMTNMDTRTRHLKVSNCPNNSYALANVAAVSPNDFPNNIYIIIDNLFVFTTRHSNDIPPGTIGFNGNQRTWGGWSLNQDVQAKAFDLFKYSGKQSYLGSIDIDISFRARGKAVSTVFDQDELAKQFVRCYESQIFSPTQYLIMEFQGHFFDLKIRNVQAIDLGDIEPTSAVATGIETKGILTKQTQINFFKGRDGLVNLKSSNSLRPRSNAVIRPDFKFEDLGVGGLDKEFTKIFRRAFASRIFPPSVIEKLGISHVKGLLLYGPPGTGKTLIARKIGTMLNAKEPKIVNGPEILSKYVGSSEENIRNLFKDAEAEYRAKGEESSLHIIIFDELDSVFKQRGSRGDGTGVGDNVVNQLLAKMDGVDQLNNILVIGMTNRKDLIDSALLRPGRFEVQVEIHLPDEKGRLQIFDIQTKKMRENNMMSDDVNLAELAALTKNFSGAEIEGLVKSASSFAINKTVNIGKGATKLNTKDIAKLKVTREDFLNALNDVTPAFGISEEDLKTCVEGGMMLYSERVNSILKNGARYVRQVRESDKSRLVSLLIHGPAGSGKTALAAEIALKSGFPFIRLISPNELSGMSESAKIAYIDNTFRDAYKSPLNILVIDSLETLVDWVPIGPRFSNNILQMLKVALKRKPPQDRRLLIMTTTSAYSVLQQMDILSCFDNEIAVPNMTNLDELNNVMIESNFLDDAGRVKVINELSRSCPNFNVGIKKTLTNIETARHDEDPVNELVELMTQSA
# Target: the molecule itself
# Experiment: SEC
protein,measurement,value
B1,stoichiometry N,6 and 2
